{"source": "paper doi:10.1101/2024.10.21.619395", "target": "G protein-coupled bile acid receptor 1 (GPBAR1), full length, with N-terminal FLAG and BRIL (human) (UniProt Q8TDU6)", "sequence (Q8TDU6 whole entry)": "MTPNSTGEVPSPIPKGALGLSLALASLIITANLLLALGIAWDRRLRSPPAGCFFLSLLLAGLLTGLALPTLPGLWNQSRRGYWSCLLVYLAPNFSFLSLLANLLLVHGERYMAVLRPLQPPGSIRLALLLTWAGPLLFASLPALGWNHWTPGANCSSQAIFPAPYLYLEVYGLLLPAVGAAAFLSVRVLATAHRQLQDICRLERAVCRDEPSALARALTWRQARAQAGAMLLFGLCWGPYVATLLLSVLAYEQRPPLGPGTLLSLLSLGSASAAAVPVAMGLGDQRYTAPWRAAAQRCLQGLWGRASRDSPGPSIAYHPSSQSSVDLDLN", "test": "mass photometry"}
{"substance": "Heterotrimeric Gs (Gαs, Gβ1, Gγ2) (from UniProt P63096 1-18; P63092 16-394; P62873 2-340; P59768 1-71) (complex)", "values": [{"measurement": "stoichiometry N", "result": 1}]}
